Patent US20200289603A1 (ELIXIRON IMMUNOTHERAPEUTICS HONG KONG, published 2020)

Key:
[1] = target: recombinant human IFNγ protein (R&D systems, 285-IF-100) (human) (UniProt P01579); test: BLI (ForteBio Octet RED96); summary sentence to Table 10
[2] = target: T1, recombinant human IFNγ protein (R&D systems, 285-IF-100) (human, UniProt P01579 24-166); test: cell-based or functional assay
T1 sequence: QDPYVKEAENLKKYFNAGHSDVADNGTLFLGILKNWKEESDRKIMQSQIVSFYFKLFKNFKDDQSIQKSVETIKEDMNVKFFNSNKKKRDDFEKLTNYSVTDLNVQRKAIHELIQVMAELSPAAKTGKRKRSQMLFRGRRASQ

[3] = target: T2, BSA (UniProt P02769 25-607); test: ELISA on plate coated with BSA (2 µg/mL)
T2 construct: also called bovine serum albumin

[4] = target: T1, recombinant human IFNγ protein (R&D …); test: BLI (ForteBio Octet RED96); summary sentence to Table 9
[5] = target: T1, recombinant human IFNγ protein (R&D …); test: BLI (ForteBio Octet RED96); summary sentence to Table 10
[6] = target: recombinant human IFNγ protein (R&D systems, 285-IF-100) (human) (UniProt P01579); test: BLI (ForteBio Octet RED96); antibody captured on AHC anti-hIgG Fc biosensor, recombinant human IFNγ in solution; 1:1 Langmuir fit

T2 sequence (P02769 25-607 limits assumed): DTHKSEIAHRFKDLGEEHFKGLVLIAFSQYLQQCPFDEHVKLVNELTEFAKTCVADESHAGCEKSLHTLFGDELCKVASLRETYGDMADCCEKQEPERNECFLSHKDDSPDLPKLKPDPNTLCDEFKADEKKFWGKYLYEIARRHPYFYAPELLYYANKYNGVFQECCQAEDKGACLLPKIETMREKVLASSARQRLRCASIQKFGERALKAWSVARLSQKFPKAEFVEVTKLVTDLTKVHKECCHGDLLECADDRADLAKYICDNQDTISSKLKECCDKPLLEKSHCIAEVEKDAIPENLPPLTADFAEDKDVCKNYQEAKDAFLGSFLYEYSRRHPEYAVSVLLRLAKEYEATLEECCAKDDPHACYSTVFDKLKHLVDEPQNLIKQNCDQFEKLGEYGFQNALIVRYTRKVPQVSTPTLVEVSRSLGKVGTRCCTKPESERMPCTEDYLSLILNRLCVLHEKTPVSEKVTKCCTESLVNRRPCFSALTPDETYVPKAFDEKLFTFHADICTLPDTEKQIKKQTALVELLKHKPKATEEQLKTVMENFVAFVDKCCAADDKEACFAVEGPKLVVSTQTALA

AMG811 (antibody)
Kd [1]: < 0.1 nM

B1: 2B6 (antibody, human IgG1, lambda, V domains shown)
VH: EVQLVESGGGLVKPGGSLRLSCAASGFPFSRYSMHWVRQAPGKGLEWVSSMTSRTNHKYYADSLKGRFLISRDNDRDSLYLEMNSLGVEDTAIYFCARGYDTSGSDSGVDFQYWGQGTLVTVSS
VL: NFMLTQPHSVSESPGKTITISCTRGRGYIASYYVQWYQQRPGGVPKIVVFEDTQRPSGVPDRISGSIDTSTNSASLTISGLQTEDEADYYCQSYDDANHVIFGGGTKLTVLG
notes: Human IgG1 lambda; also called 2B6 anti-IFNγ mAb
inhibition of HLA-DR expression on THP-1 cells stimulated with 2 ng/mL recombinant human IFN-γ, IC50 [2]: 3.5 ng/mL | binding result [3]: no binding (tested: 1 µg/mL and 0.1 µg/mL) | Kd [4]: < 0.1 nM

B2: BA (antibody, V domains shown)
VH: B1 VH
VL: NFMLTQPLSVSGYPGKTIVISCVRSSGSVASHYVQWFQQRPGSAPAMVIYEDSHRPSGIPDRFSGSVDASSNSASLTISGLKTEDEADYFCQSYYGNNQVLFGGGTKLTVL
notes: Expressed from the same human IgG1 lambda vector as 2A6 and 2B6; also called antibody having the 2B6-VH and 2A6-VL
binding result [3]: no binding (tested: 1 µg/mL and 0.1 µg/mL)

B3: 2A6 (antibody, human IgG1, lambda, V domains shown)
VH: EVQLVESGGGLVKPGDSLTVSCVASGFTFSNYFIHWVRQAPGKGLEWVATISGRTKYMFYSDSLRGRFTVSRDNANNSVYLHMSSLRGEDTALYYCVRGYDHSDSNSAADLLHWGRGTLVTVSS
VL: NFMLTQPLSVSGYPGKTIVISCVRSSGSVASHYVQWFQQRPGSAPAMVIYEDSHRPSGIPDRFSGSVDASSNSASLTISGLKTEDEADYFCQSYYGNNQVLFGGGTKLTVLG
modifications: partial N-linked glycosylation at position 76 of the VH region
notes: Human IgG1 lambda, cloned from a single patient B cell and expressed in FreeStyle 293-F cells; also called 2A6 anti-IFNγ mAb
inhibition of HLA-DR expression on THP-1 cells stimulated with 2 ng/mL recombinant human IFN-γ, IC50 [2]: 3.4 ng/mL | binding result [3]: no binding (tested: 1 µg/mL and 0.1 µg/mL) | Kd [4]: < 0.1 nM

B4: AB (antibody, V domains shown)
VH: B3 VH
VL: B1 VL
binding result [3]: no binding (tested: 1 µg/mL and 0.1 µg/mL) | Kd [5]: < 0.1 nM

B5: 1E8 (antibody, from a related filing, V domains shown)
VH: EVQLLESGGGLVQPGGPLRLSCAASGFTFSIYSMNWVRQAPGKGLEWVSSISGSGDNTYYADSVKGRFTITRDSSKNTLYLQMNTLRAEDTAVYFCAKSGRNIISPGFDSWGQGTLVTVSS
VL: QPVLTQPPSASASLGASVTLTCTLNSDYGDYKVDWYQQRPGKGPRFVMRVGTGGIVGSKGDGIPDRFSVLGSGLNRFLTIKNIQEEDESDYYCGADHGSANNFIWVFGGGTKLTVL
Kd [6]: 0.261 nM | koff [6]: 0.000121 s⁻¹ | kon [6]: 464000 M⁻¹ s⁻¹

B6: 2F2 (antibody, from a related filing, V domains shown)
VH: EVQLVESGGGLVKPGESLRLACVASGFNFSDYYMTWIRQAPGKGLEWVSYISNSGSHTYYADAVKGRFTVSRDNAKNSLYLQMTSLRGEDTAIYFCARDPSIMRGTYYMDVWGKGTTVTVSS
VL: QSVLTQPPSASGTPGQRVTISCSGSSSNIGTNPVSWYQQFPGMAPKLLIYFNNQRPSGVPERFSGSKSGTPASLAIGGLQSEDEANYYCASWDDTLNGLVFGGGTKLTVL
Kd [6]: 0.317 nM | koff [6]: 0.000109 s⁻¹ | kon [6]: 344000 M⁻¹ s⁻¹
